Measured values published in US20220332821A1 (Novartis, published 2022).

Experiments:
soluble BCMA = target: T1, soluble BCMA (UniProt Q02223 1-54); assay: cell-based or functional assay
T1 sequence (looked up): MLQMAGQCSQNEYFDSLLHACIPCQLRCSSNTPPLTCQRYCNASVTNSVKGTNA

[1] = target: T2, BCMA on KMS11 myeloma cells (UniProt Q02223 1-184); assay: cell-based or functional assay
T2 sequence (looked up): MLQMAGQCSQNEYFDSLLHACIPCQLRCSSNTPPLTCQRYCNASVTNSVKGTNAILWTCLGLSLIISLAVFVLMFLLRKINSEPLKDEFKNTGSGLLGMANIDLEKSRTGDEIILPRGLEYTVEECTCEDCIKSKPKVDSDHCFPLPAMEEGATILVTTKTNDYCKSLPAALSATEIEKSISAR

Human CD3-biotin = target: T3, Human CD3-biotin (human); assay: method not stated; mean of three biological replicates
T3 chain: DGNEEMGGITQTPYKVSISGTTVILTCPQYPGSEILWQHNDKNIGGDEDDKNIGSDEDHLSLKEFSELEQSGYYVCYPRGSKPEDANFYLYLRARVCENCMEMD

Mouse BCMA-Fc = target: T4, Mouse BCMA-Fc (mouse, UniProt O88472 1-49, limits assumed, not fully specified); assay: as above
T4 construct: not shown: Fc part
T4 chain (looked up): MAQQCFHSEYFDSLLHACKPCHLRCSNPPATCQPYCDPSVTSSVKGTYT

Cyno BCMA-Fc = target: T5, Cyno BCMA-Fc (cynomolgus, UniProt A0A2K5UD97 1-53); assay: as above
T5 construct: not shown: Fc part
T5 sequence (A0A2K5UD97 entry or part of it): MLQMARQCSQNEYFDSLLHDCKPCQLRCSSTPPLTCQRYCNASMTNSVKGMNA

B1: BSBM3 (bispecific antibody)
heavy: not shown
light: QSALTQPASVSGSPGQSITISCTGTSSDVGGYNYVSWYQQHPGKAPKLMIYDVSNRLRGVSNRFSGSKSGNTASLTISGLQAEDEADYYCSSYTSSSALYVFGSGTKVTVLGQPKAAPSVTLFPPSSEELQANKATLVCLISDFYPGAVTVAWKADSSPVKAGVETTTPSKQSNNKYAASSYLSLTPEQWKSHRSYSCQVTHEGSTVEKTVAPTECS
chain: not shown
notes: Heterodimeric IgG1 format: anti-BCMA Fab half antibody and anti-CD3 scFv-Fc half antibody; also called BSMB3
With B1 the “EC30 in RTCC assay, fold increase with 30 ng/mL soluble BCMA” value (soluble BCMA) was 6 fold, the “EC30 in RTCC assay, fold increase with 100 ng/mL soluble BCMA” value (soluble BCMA) was 15 fold and the “EC30 in RTCC assay, fold increase with 300 ng/mL soluble BCMA” value (soluble BCMA) was 41 fold. The “EC50 in RTCC assay (without added recombinant soluble BCMA)” value [1] was ~0.07 µg/mL, the “EC50 in RTCC assay, BSBM3 with AL-102 (gamma secretase inhibitor that raises surface BCMA)” value [1] was 0.02 nM and the “EC50 of KMS11-Luc cell death in RTCC assay, BSBM3 alone” value [1] was 1 nM. It also gave a Kd (Human CD3-biotin) of 8.78 nM, a Kd (Mouse BCMA-Fc) of 1.15 nM and a Kd (Cyno BCMA-Fc) of 1.29 nM.
